Measured values as given in US20030124530 (Genelabs Technologies, Inc., published 2003).

Tests used:
[1] = molecular target: T1, UL9-COOH (C-terminal DNA-binding fragment of UL9) (Herpes simplex virus 1, UniProt P10193 P10193:535-851); assay: EMSA; flanks have little effect on off-rate; disrupted by actinomycin D and doxorubicin; conditions: tags: GST fusion from pGEX-2T, thrombin-cleaved; E. coli JM109; bacterial extracts also used; label: 32P
[2] = molecular target: T1, UL9-COOH (C-terminal DNA-binding …); assay: EMSA; flanks have little effect on off-rate; filter binding same; disrupted by actinomycin D; conditions: tags: GST fusion from pGEX-2T, thrombin-cleaved; E. coli JM109; bacterial extracts also used; label: 32P
[3] = molecular target: T1, UL9-COOH (C-terminal DNA-binding …); assay: EMSA; flanks have little effect on off-rate; conditions: tags: GST fusion from pGEX-2T, thrombin-cleaved; E. coli JM109; bacterial extracts also used; label: 32P
[4] = molecular target: T1, UL9-COOH (C-terminal DNA-binding …); assay: EMSA; flanks have little effect on off-rate; disrupted by doxorubicin; conditions: tags: GST fusion from pGEX-2T, thrombin-cleaved; E. coli JM109; bacterial extracts also used; label: 32P
[5] = molecular target: T1, UL9-COOH (C-terminal DNA-binding …); assay: competition; unlabelled competitor in dissociation assay; conditions: tags: GST fusion from pGEX-2T, thrombin-cleaved; E. coli JM109; bacterial extracts also used
[6] = molecular target: T1, UL9-COOH (C-terminal DNA-binding …); assay: EMSA; flanks have little effect on off-rate; disrupted by distamycin A; conditions: tags: GST fusion from pGEX-2T, thrombin-cleaved; E. coli JM109; bacterial extracts also used; label: 32P
[7] = molecular target: T1, UL9-COOH (C-terminal DNA-binding …); assay: EMSA; flanks have little effect on off-rate; disrupted by distamycin A and doxorubicin; conditions: tags: GST fusion from pGEX-2T, thrombin-cleaved; E. coli JM109; bacterial extracts also used; label: 32P
[8] = molecular target: T1, UL9-COOH (C-terminal DNA-binding …); assay: EMSA; flanks have little effect on off-rate; particularly disrupted by doxorubicin; conditions: tags: GST fusion from pGEX-2T, thrombin-cleaved; E. coli JM109; bacterial extracts also used; label: 32P

T1 sequence (P10193 535-851, one chain of several): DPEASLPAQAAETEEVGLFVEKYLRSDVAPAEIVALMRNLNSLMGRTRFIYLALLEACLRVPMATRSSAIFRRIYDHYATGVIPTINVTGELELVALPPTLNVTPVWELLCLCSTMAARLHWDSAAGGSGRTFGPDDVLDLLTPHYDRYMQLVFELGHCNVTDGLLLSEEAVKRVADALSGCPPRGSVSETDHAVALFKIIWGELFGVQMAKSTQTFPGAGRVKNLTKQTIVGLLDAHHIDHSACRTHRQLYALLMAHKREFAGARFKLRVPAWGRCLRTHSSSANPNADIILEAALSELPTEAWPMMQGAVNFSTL

B1: UL9 GGGC (dsDNA)
DNA 1: GGCGGGCGCCGTTCGCACTTGGGCGGGCGG
DNA 2: CCGCCCGCCCAAGTGCGAACGGCGCCCGCC
- binding result [1]: binds

B2: UL9 CCCG (dsDNA)
DNA 1: GGCCCGCCCCGTTCGCACTTCCCGCCCCGG
DNA 2: CCGGGGCGGGAAGTGCGAACGGGGCGGGCC
- binding result [2]: binds

B3: ATori1 (dsDNA)
DNA 1: GCGTATATATCGTTCGCACTTCGTCCCAAT
DNA 2: ATTGGGACGAAGTGCGAACGATATATACGC
- binding result [3]: binds

B4: oriEco2 (dsDNA)
DNA 1: GGCGAATTCGACGTTCGCACTTCGTCCCAAT
DNA 2: ATTGGGACGAAGTGCGAACGTCGAATTCGCC
- binding result [4]: binds

B5: 17 bp UL9 competitor (dsDNA)
DNA 1: GGTCGTTCGCACTTCGC
DNA 2: GCGAAGTGCGAACGACC
- binding result [5]: binds

B6: FIG. 5 oligo SEQ ID NO:610 (dsDNA)
DNA 1: GGACGCACGCGTTCGCACTTGCAGCAGCGG
DNA 2: CCGCTGCTGCAAGTGCGAACGCGTGCGTCC
- binding result [3]: binds

B7: UL9 ATAT (dsDNA)
DNA 1: GGATATATACGTTCGCACTTTAATTATTGG
DNA 2: CCAATAATTAAAGTGCGAACGTATATATCC
- binding result [6]: binds

B8: UL9 polyT (dsDNA)
DNA 1: GGTTTTTTTCGTTCGCACTTTTTTTTTTGG
DNA 2: CCAAAAAAAAAAGTGCGAACGAAAAAAACC
- binding result [7]: binds

B9: oriEco3 (dsDNA)
DNA 1: GGCGAATTCGATCGTTCGCACTTCGTCCCAAT
DNA 2: ATTGGGACGAAGTGCGAACGATCGAATTCGCC
- binding result [8]: binds

B10: UL9 polyA (dsDNA)
DNA 1: GGAAAAAAACGTTCGCACTTAAAAAAAAGG
DNA 2: CCTTTTTTTTAAGTGCGAACGTTTTTTTCC
- binding result [6]: binds
